Data published in IntAct's records for PubMed 16924104.

B1: Polyunsaturated fatty acid 5-lipoxygenase (Homo sapiens), P09917 (parent)
chain: MPSYTVTVATGSQWFAGTDDYIYLSLVGSAGCSEKHLLDKPFYNDFERGAVDSYDVTVDEELGEIQLVRIEKRKYWLNDDWYLKYITLKTPHGDYIEFPCYRWITGDVEVVLRDGRAKLARDDQIHILKQHRRKELETRQKQYRWMEWNPGFPLSIDAKCHKDLPRDIQFDSEKGVDFVLNYSKAMENLFINRFMHMFQSSWNDFADFEKIFVKISNTISERVMNHWQEDLMFGYQFLNGCNPVLIRRCTELPEKLPVTTEMVECSLERQLSLEQEVQQGNIFIVDFELLDGIDANKTDPCTLQFLAAPICLLYKNLANKIVPIAIQLNQIPGDENPIFLPSDAKYDWLLAKIWVRSSDFHVHQTITHLLRTHLVSEVFGIAMYRQLPAVHPIFKLLVAHVRFTIAINTKAREQLICECGLFDKANATGGGGHVQMVQRAMKDLTYASLCFPEAIKARGMESKEDIPYYFYRDDGLLVWEAIRTFTAEVVDIYYEGDQVVEEDPELQDFVNDVYVYGMRGRKSSGFPKSVKSREQLSEYLTVVIFTASAQHAAVNFGQYDWCSWIPNAPPTMRAPPPTAKGVVTIEQIVDTLPDRGRSCWHLGAVWALSQFQENELFLGMYPEEHFIEKPVKEAMARFRKNLEAIVSVIAERNKKKQLPYYYLSPDRIPNSVAI
partner: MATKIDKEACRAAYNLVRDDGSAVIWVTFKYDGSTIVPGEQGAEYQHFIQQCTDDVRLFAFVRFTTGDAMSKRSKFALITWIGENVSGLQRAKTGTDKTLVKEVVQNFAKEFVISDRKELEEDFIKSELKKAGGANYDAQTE

Variants of: B1
Conditions: with cotl1_human COTL1, Q14019

Variant	effect of a mutation on the interaction
W14A;W76A;W103A	disrupting interaction strength
